Positions count from the first letter of the chain named.
B1: unnamed (protein)
chain 1: EVQLLESGGGLVQPGGSLRLSCAASGFTFSQYGMDWVRQAPGKGLEWVSGIGPSGGSTVYADSVKGRFTISRDNSKNTLYLQMNSLRAEDTAVYYCARDGSAYYYAFDVWGQGTTVTVSS
chain 2: DIQMTQSPSSLSASVGDRVTITCQASQDISNYLNWYQQKPGKAPKLLIYDASNLETGVPSRFSGSGSGTDFTFTISSLQPEDIATYYCQQADSFPVTFGGGTKVEIK
B2: unnamed (protein)
chain 1: B1 chain 1 with A97T, D99G, S101P, A102S, Y103W
chain 2: B1 chain 2
B3: unnamed (protein)
chain 1: B1 chain 1 with A97T, S101P, A102S, A106G
chain 2: B1 chain 2
B4: unnamed (protein)
chain 1: B1 chain 1 with A97T, S101P, V109I
chain 2: B1 chain 2
B5: unnamed (protein)
chain 1: B1 chain 1 with A97T, S101P, A102W
chain 2: B1 chain 2
B6: unnamed (protein)
chain 1: B1 chain 1 with S101P, V109Y
chain 2: B1 chain 2
B7: unnamed (protein)
chain 1: B1 chain 1 with S101P, A102S
chain 2: B1 chain 2
B8: unnamed (protein)
chain 1: B1 chain 1 with A97T, S101P, V109Y
chain 2: B1 chain 2
B9: unnamed (protein)
chain 1: B1 chain 1 with A97T, S101P, Y103W, V109Y
chain 2: B1 chain 2
B10: unnamed (protein)
chain 1: B1 chain 1 with S101P, A106G
chain 2: B1 chain 2

Biological target: FXI
Assay: Kd (SPR)

Q: B1 was tested. Which Kd did it give?
A: 270 nM

Q: B2 was tested. Which Kd did it give?
A: 210 nM

Q: Which Kd does the source give for B3 here?
A: 95.3 nM

Q: For B4, which Kd is on record?
A: 109 nM

Q: Which Kd does the source give for B5 here?
A: 79.8 nM

Q: For B6, which Kd is on record?
A: 106 nM

Q: How did the Kd turn out when B7 was run?
A: 134 nM

Q: For B8, which Kd is on record?
A: 147 nM

Q: For B9, which Kd is on record?
A: 78.2 nM

Q: B10 was tested. Which Kd did it give?
A: 175 nM
